Measured values as given in publication PMC4148261.
Where no end group is shown, it is not given here.

Biological target: Recombinant His-tagged Hsp70 protein, equivalent to HSPA1A
Assay: ELISA; peptide ELISA: heat shock proteins coated on MaxiSorp plates (1 µg/well/100 µl, carbonate buffer pH 9.6, 4°C overnight), blocked with PBS 2% BSA; CF-labeled peptides 100, 50, 25 ng/ml, 27°C 30 min; fluorescence counts read

- fluorescence counts: 1200 counts
Binder: TKDNNLLGRFELSG (also: carboxyfluorescein (CF) label, position not given here) [carboxy-fluorescein (CF-) labeled 14-mer tumor penetrating peptide (TPP)]
